From the supplement of paper PMC10567573

B1: TBX5 (parent)
chain: FHEVGTEMIITKAGRRMFPSYKVK
B2: TMEM175 (parent)
chain: SCTIIFLASIFQLAMWTTALLHQA

Variants of: B1
Experiment: protein stability index of a GFP-peptide fusion (GPS, HEK-293T) (PSI 1-6); higher = more stable
Settings: c terminus: a fixed tail appended
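Further: lentivirally expressed fusions sorted by FACS into six bins by GFP to DsRed ratio, PSI derived from sequencing read proportions per bin multiplied by bin number.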

Protein stability index, by site and new letter:
E7: W 2.06
F1: H 2.41, P 3.5, L 2.3, K 3.54, E 3.68, S 3.09, A 3.81, M 3.02, Y 2.55, R 2.58, C 2.18, Q 3.25, I 2.44, V 2.58, N 3.4, D 3.1, T 3.13, G 3.65, W 2.46
T11: M 1.53, L 2.14, P 2.28, Q 1.88, S 3.49, I 1.19, K 2.59, N 2.46, F 1.71, D 2.13, V 1.76, C 2.44, Y 1.02, A 3.29, E 2.36, R 2.47
H2: F 2.39, Q 1.84, R 2.53, D 2.67, A 2.04, W 1.57, I 1.69, K 2.24, P 2.27, S 2.53, N 2.93, E 3.09, T 1.85, L 2.07, C 1.72, Y 2.41, G 2.48, M 2.03, V 2.38

Variants of: B2
Experiment: as above
Settings: c terminus: a fixed tail appended

Protein stability index, by site and new letter:
A19: T 3.07, V 2.43, F 3.13, D 2.3, W 3.12, Y 2.1, L 2.11, I 2.14, E 2.73, M 3.22, R 2.19, P 4.62, K 2.76, H 1.58
Q23: E 2.09, F 3.89, W 3.32, S 3.77, T 3.34, H 2.71, G 4.5, M 3.84, P 3, I 2.95, V 3.24, K 3.26, N 4.37
H22: L 1.86, P 3, M 2.74, A 3.84, T 2.65, N 2.87, Q 2.97, R 2.5, Y 2.5, I 4.4, G 3.04, K 3.44, V 3.39, C 3.02, W 3.14, F 2.6
A24: M 1.89, R 2.43, D 4.05, Y 2.61, L 3.17, H 2.67, S 1.55, W 3.03, Q 2.56, C 3.39, K 2.88, I 3.19, F 2.62, V 1.5, N 2.45, T 3.01, E 3.22
L21: M 2.73, H 3.3, P 3.35, C 3.36, F 2.81, Y 3.71, A 1.45, D 3.61, Q 2.64, V 3.72, R 3.98, K 3.7, I 2.71, S 3.45, T 3.02, N 2.05, E 2.55
T18: S 3.06, A 2.23, F 3.03, P 3.36, I 2.16, L 2.73, G 1.6, K 2.31, Y 2.68, C 3.17, E 2.78, D 2.18, H 2.85, R 2.09
T17: Y 2.83, R 2.01, P 2.64, W 4, S 2.31, V 2.22, Q 2.52
L20: Y 3.22, H 3.02, I 3.51, G 1.94, A 3.09, F 2.74, Q 3.1, W 1.4, S 3.1, M 3.22, D 3.05, N 3.09, P 1.81, R 3.39
